Experiments:
human PD-L1 (human) [1] = target: human PD-L1 (human) (UniProt Q9NZQ7); test: flow cytometry, CHO cells expressing huPD-L1
human CTLA-4 (human) [2] = target: human CTLA-4 (human) (UniProt P16410); test: flow cytometry, CHO cells expressing huCTLA-4
CD28 (human) [3] = target: CD28 (human) (UniProt P10747); test: flow cytometry, Jurkat/IL2 reporter cells (CD28)
human PD-L1 (human) [4] = target: human PD-L1 (human) (UniProt Q9NZQ7); test: flow cytometry, CHO cells expressing huPD-L1; MFI ratio to WT CD80 ECD-Fc (R&D)
human PD-L1 (human) [5] = target: human PD-L1 (human) (UniProt Q9NZQ7); test: flow cytometry; binding to PD-L1 cells against binding of the same variant to CD28 cells
human CTLA-4 (human) [6] = target: human CTLA-4 (human) (UniProt P16410); test: flow cytometry, CHO cells expressing huCTLA4; MFI ratio to WT CD80 ECD-Fc (R&D)
human CTLA-4 (human) [7] = target: human CTLA-4 (human) (UniProt P16410); test: flow cytometry, CHO cells expressing huCTLA4
CD28 (human) [8] = target: CD28 (human) (UniProt P10747); test: flow cytometry, Jurkat/IL2 reporter cells (endogenous CD28); MFI ratio to WT CD80 ECD-Fc (R&D)
CD28 (human) [9] = target: CD28 (human) (UniProt P10747); test: flow cytometry, Jurkat/IL2 reporter cells (endogenous CD28)
human CTLA-4 (human) [10] = target: human CTLA-4 (human) (UniProt P16410); test: flow cytometry, Expi293F cells transfected with CTLA-4
CD28 (human) [11] = target: CD28 (human) (UniProt P10747); test: flow cytometry, Expi293F cells transfected with CD28
human PD-L1 (human) [12] = target: human PD-L1 (human) (UniProt Q9NZQ7); test: flow cytometry, Expi293F cells transfected with PD-L1

Chain of human CTLA-4 (human) (P16410 36-223): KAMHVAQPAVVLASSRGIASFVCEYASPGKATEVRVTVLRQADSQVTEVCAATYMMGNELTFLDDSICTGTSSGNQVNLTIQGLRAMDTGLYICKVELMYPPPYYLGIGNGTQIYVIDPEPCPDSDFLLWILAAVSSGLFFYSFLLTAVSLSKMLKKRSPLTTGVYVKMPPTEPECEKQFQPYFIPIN
Chain of human PD-L1 (human) (Q9NZQ7 19-290): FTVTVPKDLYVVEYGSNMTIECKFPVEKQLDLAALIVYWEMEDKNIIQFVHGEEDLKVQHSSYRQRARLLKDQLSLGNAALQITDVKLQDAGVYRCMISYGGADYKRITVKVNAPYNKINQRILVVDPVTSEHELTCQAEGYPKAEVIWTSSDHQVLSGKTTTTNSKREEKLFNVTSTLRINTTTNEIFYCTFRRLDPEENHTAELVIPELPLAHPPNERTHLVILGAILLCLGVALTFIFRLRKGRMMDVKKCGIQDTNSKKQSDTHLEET

Row | Binder | MFI at 33.3 nM (human PD-L1 (human) [1]) | MFI at 33.3 nM (human CTLA-4 (human) [2]) | Fold change to WT (human PD-L1 (human) [4]) | Ratio of PDL1:CD28 (human PD-L1 (human) [5]) | Fold change to WT CD80 (human CTLA-4 (human) [6]) | MFI at 33.3 nM (human CTLA-4 (human) [7]) | Fold change to WT (CD28 (human) [8]) | MFI at 33.3 nM (CD28 (human) [9]) | also measured
1 | variant CD80 IgV-Fc E35D/M47L (Fc fusion) VIHVTKEVKEVATLSCGHNVSVEELAQTRIYWQKDKKMVLTMMSGDLNIWPEYKNRTIFDITNNLSIVILALRPSDEGTYECVVLKYEKDAFKREHLAEVTLSVKAD | 7530 MFI | 48000 MFI | – | – | – | – | – | – | MFI at 33.3 nM (CD28 (human) [3]): 411 MFI
2 | variant CD80 IgV-Fc E35D/D46V/M47L (Fc fusion) VIHVTKEVKEVATLSCGHNVSVEELAQTRIYWQKDKKMVLTMMSGVLNIWPEYKNRTIFDITNNLSIVILALRPSDEGTYECVVLKYEKDAFKREHLAEVTLSVKAD | 7990 MFI | 45000 MFI | – | – | – | – | – | – | –
3 | variant CD80 IgV-Fc E35D/M47V/V68M/K89N (Fc fusion) VIHVTKEVKEVATLSCGHNVSVEELAQTRIYWQKDKKMVLTMMSGDVNIWPEYKNRTIFDITNNLSIMILALRPSDEGTYECVVLKYENDAFKREHLAEVTLSVKAD | 21800 MFI | 29500 MFI | – | – | – | – | – | – | –
4 | variant CD80 IgV-Fc Q33L/E35D/M47L/V68M/L85Q/E88D (Fc fusion) VIHVTKEVKEVATLSCGHNVSVEELAQTRIYWLKDKKMVLTMMSGDLNIWPEYKNRTIFDITNNLSIMILALRPSDEGTYECVVQKYDKDAFKREHLAEVTLSVKAD | 126000 MFI | – | 15.8 fold | 476 | 0.02 fold | 3530 MFI | 0.03 fold | 264 MFI | –
5 | variant CD80 IgV-Fc E35D/N48K/V68M (Fc fusion) VIHVTKEVKEVATLSCGHNVSVEELAQTRIYWQKDKKMVLTMMSGDMKIWPEYKNRTIFDITNNLSIMILALRPSDEGTYECVVLKYEKDAFKREHLAEVTLSVKAD | – | 33600 MFI | – | – | – | – | – | – | MFI at 33.3 nM (CD28 (human) [3]): 642 MFI
6 | variant CD80 IgV-Fc H18Y/Y31H/E35D/M47V/A71G/L85Q (Fc fusion) VIHVTKEVKEVATLSCGYNVSVEELAQTRIHWQKDKKMVLTMMSGDVNIWPEYKNRTIFDITNNLSIVILGLRPSDEGTYECVVQKYEKDAFKREHLAEVTLSVKAD | 76400 MFI | – | 9.61 fold | 285 | 0.02 fold | 3840 MFI | 0.04 fold | 268 MFI | –
7 | variant CD80 IgV-Fc E35D/M47V/A71G/L85M/L97Q (Fc fusion) VIHVTKEVKEVATLSCGHNVSVEELAQTRIYWQKDKKMVLTMMSGDVNIWPEYKNRTIFDITNNLSIVILGLRPSDEGTYECVVMKYEKDAFKREHQAEVTLSVKAD | 61700 MFI | – | 7.77 fold | 182 | 1.34 fold | 239000 MFI | 0.04 fold | 339 MFI | –
8 | variant CD80 IgV-Fc E35D/M47V/N48K (Fc fusion) VIHVTKEVKEVATLSCGHNVSVEELAQTRIYWQKDKKMVLTMMSGDVKIWPEYKNRTIFDITNNLSIVILALRPSDEGTYECVVLKYEKDAFKREHLAEVTLSVKAD | 4850 MFI | 47400 MFI | – | – | – | – | – | – | –
9 | variant CD80 IgV-Fc E35D/M47V/N48K/V68M (Fc fusion) VIHVTKEVKEVATLSCGHNVSVEELAQTRIYWQKDKKMVLTMMSGDVKIWPEYKNRTIFDITNNLSIMILALRPSDEGTYECVVLKYEKDAFKREHLAEVTLSVKAD | 23500 MFI | 32900 MFI | – | – | – | – | – | – | –
10 | variant CD80 IgV-Fc E35D/D46E/M47V/L97Q (Fc fusion) VIHVTKEVKEVATLSCGHNVSVEELAQTRIYWQKDKKMVLTMMSGEVNIWPEYKNRTIFDITNNLSIVILALRPSDEGTYECVVLKYEKDAFKREHQAEVTLSVKAD | 19500 MFI | – | 2.45 fold | 52 | 1.71 fold | 305000 MFI | 0.05 fold | 371 MFI | –
11 | variant CD80 IgV-Fc Q33L/E35D/N48K/L85Q/L97Q (Fc fusion) VIHVTKEVKEVATLSCGHNVSVEELAQTRIYWLKDKKMVLTMMSGDMKIWPEYKNRTIFDITNNLSIVILALRPSDEGTYECVVQKYEKDAFKREHQAEVTLSVKAD | 45200 MFI | – | 5.69 fold | 162 | 0.01 fold | 1180 MFI | 0.04 fold | 279 MFI | –
12 | variant CD80 IgV-Fc Q33L/E35D/M43V/M47I/A71G (Fc fusion) VIHVTKEVKEVATLSCGHNVSVEELAQTRIYWLKDKKMVLTMVSGDINIWPEYKNRTIFDITNNLSIVILGLRPSDEGTYECVVLKYEKDAFKREHLAEVTLSVKAD | 78000 MFI | – | 9.82 fold | 275 | 0.08 fold | 14000 MFI | 0.04 fold | 284 MFI | –
13 | variant CD80 IgV-Fc E35D/D46V/L85Q (Fc fusion) VIHVTKEVKEVATLSCGHNVSVEELAQTRIYWQKDKKMVLTMMSGVMNIWPEYKNRTIFDITNNLSIVILALRPSDEGTYECVVQKYEKDAFKREHLAEVTLSVKAD | 4040 MFI | 48000 MFI | – | – | – | – | – | – | MFI at 33.3 nM (CD28 (human) [3]): 196 MFI
14 | variant CD80 IgV-Fc E35D/D46V/V68M (Fc fusion) VIHVTKEVKEVATLSCGHNVSVEELAQTRIYWQKDKKMVLTMMSGVMNIWPEYKNRTIFDITNNLSIMILALRPSDEGTYECVVLKYEKDAFKREHLAEVTLSVKAD | 26100 MFI | 31200 MFI | – | – | – | – | – | – | –
15 | CD80 V4M/L70Q/A91G/I118V/T120S/T130A/K169E ECD-Fc (Fc fusion) VIHMTKEVKEVATLSCGHNVSVEELAQTRIYWQKEKKMVLTMMSGDMNIWPEYKNRTIFDITNNLSIVIQALRPSDEGTYECVVLKYEKDGFKREHLAEVTLSVKADFPTPSISDFEVPSSNIRRIICSASGGFPEPHLSWLENGEELNAINTTVSQDPETELYAVSSELDFNMTTNHSFMCLIKYGHLRVNQTFNWNTTKQEHFPDN | – | – | – | – | – | – | – | – | MFI (human CTLA-4 (human) [10]): 263 MFI; parental ratio (human CTLA-4 (human) [10]): 1.26; MFI (CD28 (human) [11]): 89 MFI; parental ratio (CD28 (human) [11]): 0.94; MFI (human PD-L1 (human) [12]): 6 MFI; parental ratio (human PD-L1 (human) [12]): 0.09
16 | CD80 A91G/S103P ECD-Fc (Fc fusion) VIHVTKEVKEVATLSCGHNVSVEELAQTRIYWQKEKKMVLTMMSGDMNIWPEYKNRTIFDITNNLSIVILALRPSDEGTYECVVLKYEKDGFKREHLAEVTLPVKADFPTPSISDFEIPTSNIRRIICSTSGGFPEPHLSWLENGEELNAINTTVSQDPETELYAVSSKLDFNMTTNHSFMCLIKYGHLRVNQTFNWNTTKQEHFPDN | – | – | – | – | – | – | – | – | MFI (CD28 (human) [11]): 39 MFI; parental ratio (CD28 (human) [11]): 0.41; MFI (human PD-L1 (human) [12]): 9 MFI; parental ratio (human PD-L1 (human) [12]): 0.13
17 | CD80 S44P/L70Q/A91G/T130A ECD-Fc (Fc fusion) VIHVTKEVKEVATLSCGHNVSVEELAQTRIYWQKEKKMVLTMMPGDMNIWPEYKNRTIFDITNNLSIVIQALRPSDEGTYECVVLKYEKDGFKREHLAEVTLSVKADFPTPSISDFEIPTSNIRRIICSASGGFPEPHLSWLENGEELNAINTTVSQDPETELYAVSSKLDFNMTTNHSFMCLIKYGHLRVNQTFNWNTTKQEHFPDN | – | – | – | – | – | – | – | – | MFI (human CTLA-4 (human) [10]): 134 MFI; parental ratio (human CTLA-4 (human) [10]): 0.64; MFI (CD28 (human) [11]): 88 MFI; parental ratio (CD28 (human) [11]): 0.92; MFI (human PD-L1 (human) [12]): 5 MFI; parental ratio (human PD-L1 (human) [12]): 0.07
18 | CD80 A91G/L102S ECD-Fc (Fc fusion) VIHVTKEVKEVATLSCGHNVSVEELAQTRIYWQKEKKMVLTMMSGDMNIWPEYKNRTIFDITNNLSIVILALRPSDEGTYECVVLKYEKDGFKREHLAEVTSSVKADFPTPSISDFEIPTSNIRRIICSTSGGFPEPHLSWLENGEELNAINTTVSQDPETELYAVSSKLDFNMTTNHSFMCLIKYGHLRVNQTFNWNTTKQEHFPDN | – | – | – | – | – | – | – | – | MFI (human CTLA-4 (human) [10]): 6 MFI; parental ratio (human CTLA-4 (human) [10]): 0.03; MFI (CD28 (human) [11]): 6 MFI; parental ratio (CD28 (human) [11]): 0.06; MFI (human PD-L1 (human) [12]): 5 MFI; parental ratio (human PD-L1 (human) [12]): 0.08
19 | CD80 K37E/F59S/L70Q/A91G/T120S/T130A ECD-Fc (SEQ ID NO 1397) (Fc fusion) VIHVTKEVKEVATLSCGHNVSVEELAQTRIYWQKEKEMVLTMMSGDMNIWPEYKNRTISDITNNLSIVIQALRPSDEGTYECVVLKYEKDGFKREHLAEVTLSVKADFPTPSISDFEVPSSNIRRIICSASGGFPEPHLSWLENGEELNAINTTVSQDPETELYAVSSKLDFNMTTNHSFMCLIEYGHLRVNQTFNWNTTKQEHFPDN | – | – | – | – | – | – | – | – | MFI (human CTLA-4 (human) [10]): 74 MFI; parental ratio (human CTLA-4 (human) [10]): 0.36; MFI (CD28 (human) [11]): 20 MFI; parental ratio (CD28 (human) [11]): 0.21; MFI (human PD-L1 (human) [12]): 6 MFI; parental ratio (human PD-L1 (human) [12]): 0.08
